Residue numbers refer to the chain shown, from its start. Names and notes keep the numbering of the source. Values belong to the binder of their own block, whether it stands above or below them.
Experiments:
Bch1 = target: T1, Bch1 (S. cerevisiae (yeast), UniProt Q05029 1-724); assay: crystal structure
T1 sequence: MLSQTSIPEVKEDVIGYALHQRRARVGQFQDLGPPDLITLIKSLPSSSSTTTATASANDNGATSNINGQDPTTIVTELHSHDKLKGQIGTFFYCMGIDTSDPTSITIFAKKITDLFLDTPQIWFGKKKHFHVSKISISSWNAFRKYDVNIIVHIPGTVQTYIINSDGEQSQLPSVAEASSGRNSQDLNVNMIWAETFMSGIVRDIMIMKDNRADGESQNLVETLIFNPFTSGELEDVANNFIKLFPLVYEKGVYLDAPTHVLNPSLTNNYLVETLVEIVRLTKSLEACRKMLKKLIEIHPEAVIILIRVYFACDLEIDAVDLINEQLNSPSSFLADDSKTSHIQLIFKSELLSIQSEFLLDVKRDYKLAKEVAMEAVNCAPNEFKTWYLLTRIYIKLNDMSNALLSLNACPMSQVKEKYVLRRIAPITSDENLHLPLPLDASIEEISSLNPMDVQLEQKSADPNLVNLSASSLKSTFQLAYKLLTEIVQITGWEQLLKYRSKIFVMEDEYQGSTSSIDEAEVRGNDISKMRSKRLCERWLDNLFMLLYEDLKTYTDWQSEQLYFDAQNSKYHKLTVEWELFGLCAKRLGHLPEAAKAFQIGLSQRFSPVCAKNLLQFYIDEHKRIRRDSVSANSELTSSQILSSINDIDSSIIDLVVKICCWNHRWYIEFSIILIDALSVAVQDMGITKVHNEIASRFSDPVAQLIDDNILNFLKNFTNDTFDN

[1] = target: T2, Chs5(1-299)/Bch1 exomer complex (S. cerevisiae (yeast), UniProt Q12114 1-299; Q05029 1-724); assay: crystal structure
T2 sequence 1: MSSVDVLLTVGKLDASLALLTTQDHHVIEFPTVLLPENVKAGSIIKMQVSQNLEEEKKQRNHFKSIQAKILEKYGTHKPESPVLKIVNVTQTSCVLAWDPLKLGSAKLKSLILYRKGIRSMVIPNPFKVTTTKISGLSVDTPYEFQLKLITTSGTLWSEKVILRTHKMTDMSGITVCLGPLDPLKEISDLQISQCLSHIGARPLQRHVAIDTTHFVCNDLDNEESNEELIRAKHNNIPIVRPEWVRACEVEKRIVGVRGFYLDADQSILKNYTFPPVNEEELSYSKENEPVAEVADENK
T2 sequence 2: T1 sequence

crystal structure = target: the molecule itself; assay: crystal structure
[2] = target: T3, Chs5(1-299)/Chs6 exomer complex (S. cerevisiae (yeast), UniProt Q12114 1-299; P40955 1-746); assay: co-sedimentation
T3 sequence (looked up) 1: T2 sequence 1
T3 sequence (looked up) 2: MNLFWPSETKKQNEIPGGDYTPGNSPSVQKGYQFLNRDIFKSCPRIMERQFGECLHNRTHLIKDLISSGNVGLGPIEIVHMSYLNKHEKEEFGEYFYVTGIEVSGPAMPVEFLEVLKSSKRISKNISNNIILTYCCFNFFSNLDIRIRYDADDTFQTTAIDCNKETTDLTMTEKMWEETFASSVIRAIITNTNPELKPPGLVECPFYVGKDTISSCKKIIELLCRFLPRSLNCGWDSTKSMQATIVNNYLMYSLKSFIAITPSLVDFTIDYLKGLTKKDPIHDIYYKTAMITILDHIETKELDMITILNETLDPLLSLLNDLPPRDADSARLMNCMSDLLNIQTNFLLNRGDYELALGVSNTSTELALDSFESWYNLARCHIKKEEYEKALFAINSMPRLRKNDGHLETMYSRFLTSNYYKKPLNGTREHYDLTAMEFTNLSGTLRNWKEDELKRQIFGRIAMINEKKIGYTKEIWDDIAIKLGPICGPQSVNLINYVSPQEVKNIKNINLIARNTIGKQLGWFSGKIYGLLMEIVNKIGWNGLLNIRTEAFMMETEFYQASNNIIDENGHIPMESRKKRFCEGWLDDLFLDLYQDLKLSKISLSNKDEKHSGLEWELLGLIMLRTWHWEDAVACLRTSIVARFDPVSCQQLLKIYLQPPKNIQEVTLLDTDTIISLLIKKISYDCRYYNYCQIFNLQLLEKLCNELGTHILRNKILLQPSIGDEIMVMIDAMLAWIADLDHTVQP

[3] = target: T2, Chs5(1-299)/Bch1 exomer complex; assay: co-sedimentation
[4] = target: T4, Chs5(1-299)-T92Y/Bch1-N692I exomer complex (S. cerevisiae (yeast), UniProt Q12114 1-299; Q05029 1-724, T92Y | N692I); assay: co-sedimentation
T4 sequence 1: T2 sequence 1 with T92Y
T4 sequence 2: T1 sequence with N692I

[5] = target: T5, Chs5(1-299)-T92Y/Bch1 exomer complex (S. cerevisiae (yeast), UniProt Q12114 1-299; Q05029 1-724, T92Y); assay: co-sedimentation
T5 sequence 1: T2 sequence 1 with T92Y
T5 sequence 2: T1 sequence

[6] = target: T6, Chs5(1-299)/Bch1-N692I exomer complex (S. cerevisiae (yeast), UniProt Q12114 1-299; Q05029 1-724, N692I); assay: co-sedimentation
T6 sequence 1: T2 sequence 1
T6 sequence 2: T1 sequence with N692I

B1: ΔN17-Arf1-Q71L bound to GMPPNP (domain or fragment, S. cerevisiae (yeast), UniProt P11076 18-181, looked up)
chain: MRILMVGLDGAGKTTVLYKLKLGEVITTIPTIGFNVETVQYKNISFTVWDVGGLDRIRSLWRHYYRNTEGVIFVVDSNDRSRIGEAREVMQRMLNEDELRNAAWLVFANKQDLPEAMSAAEITEKLGLHSIRNRPWFIQATCATSGEGLYEGLEWLSNSLKNST
binding result (Bch1): binds
stoichiometry N [1]: 2

B2: Chs5 (residues 1-299) (domain or fragment, S. cerevisiae (yeast), UniProt Q12114 1-299, looked up)
chain: T2 sequence 1
binding result (Bch1): binds
binding result (crystal structure): binds

Results, then the binder that gave them:

binding result [2]: binds
binding result [3]: binds
binding result [4]: binds
binding result [5]: binds
binding result [6]: binds
B3: myristoylated Arf1 (wild type), GTP-bound, anchored on liposomes (natural protein, yeast, UniProt P11076 1-181, looked up)
chain: MGLFASKLFSNLFGNKEMRILMVGLDGAGKTTVLYKLKLGEVITTIPTIGFNVETVQYKNISFTVWDVGGQDRIRSLWRHYYRNTEGVIFVVDSNDRSRIGEAREVMQRMLNEDELRNAAWLVFANKQDLPEAMSAAEITEKLGLHSIRNRPWFIQATCATSGEGLYEGLEWLSNSLKNST
modifications: myristoylated

binding result [3]: binds
B4: myristoylated Arf1-S98Y (natural protein, yeast, UniProt P11076 1-181, looked up)
chain: B3 chain with S98Y
modifications: myristoylated

— publication PMC4159615 (Developmental cell, 2014)
